Experimental data taken from a protein production outcome set (Wang et al. 2014).

Experiment: label from the status in PepcDB records

Row | Sequence | protein production
1 | MREHLKLFSLIFSYPDEDKLGKAIALAEGIGLTEIAQTLKQVDIEALQVEYTSLFISSHPSVPCPPYQSYFEEGSVYGKASLRAAELYSKYGLNYVYESEPPDHISVELEFLSMNPELLSDFRDWFLEFAKCVEEKSEIYATFARAFRKFLEKPSKVQS | not failed
2 | MRENIIEFIPKEKPCSYLKEERSLFRYFHIEECSSDLYQALLERGWRRFGKYFFVPICKNCKACLSVRKPLANLEFSRSFKRVLSKNRQTGLVIQRPMITEAHLKLYDRYHRRMSEKKGWEYSPITMESYYEMFVEGSGEFGYEFAYYRDERLVGIALVDILERSLSAVYCFYDHDYSDFSLGIFSILKQLELAKRLKIDYFYPGYWIKNHPSMGYKERFAPYEILRNEPDIDALPEWSLQGENE | failed
3 | MREQLRAHGIGPNDIHTLLLSHFHADHIAGLRDFPRARILASEPGWRAVRGLSGLAAVRQAFLPGLLPPDMESRLSFVEAFALQALPADLAPFSHGRDVSGCGEVFVVDLPGHAAGHLGAFVLGDAGWTLLASDAAWSEEGYREMRGPSELSFLVQHSRRSYYDTLARLHALHRGGRVDILLTHQEETPCLEHHHHHH | failed
4 | MRERFDVVIAGAGPAGAQCARDLAERNYEVLVLESEPEDGFPRQSNKSTAGTFMSAMTGFAIPDDVVMNYTDNVVLESPNDHYVRNQTGAVLEFAEFKQWLVSEGRDKGATYRFDSRVSAPIMENGEIVGVRYDGDEEVYADIVIDATGPAAPLAKELDVCNLQRNHQAIGVEYEFEGVEVDHDDYADLRDAMMLRLDHDLAPGGYSWIFHTGEDTAKVGLCYIQNGSHQKYAKDGMGIDDYLEYWLDSDPRFDDAERIEGTQAHRGSAHIQPPDSMSTDNFMAIGDTVPTVDPLWGEGIHKGMKSARAAAATADSALKPDEPDTSAENLSVYDQLWHSEVAPKHNARLMMTELLYLAPNERYDQLMDDLRSTGQDTLRQINGGDRRAIAKLTHLSDMPILVEYARRRLDILEHHHHHH | failed
5 | MRERKKYGKHIPKSLSSKINKRKLIQKNICTNYKTIKIIDIYENLPYNQLNNGRTKIKEIILANDVLVVLLISGISRAYNMINGEFLCEINPNNFSVVHTIVYNSYNNTLIIAYASFPAHLQCKVIDCNDLKHGITNSSKLGILFGT | failed
6 | MREVKLVTFDVWNTLLDLNIMLDEFSHQLAKISGLHIKDVANAVIEVRNEIKKMRAQASEDPRKVLTGSQEALAGKLKVDVELVKRATARAILNVDESLVLEGTKEALQFVKERGLKTAVIGNVMFWPGSYTRLLLERFGLMEFIDKTFFADEVLSYKPRKEMFEKVLNSFEVKPEESLHIGDTYAEDYQGARKVGMWAVWINQEGDKVRKLEERGFEIPSIANLKDVIELISKT | not failed
7 | MRFDKSCQARAPSAPDGPGVLRFTIFRGEAKKRKAAVSVAGRFCAVACFLRLGSAGLSRCPCYFSPMLERRIVVAVPARDEGAGVVATLRALAAQEGAPPFQTLLLVNNSRDDTAAQARAFARQMPGFRLQVEEVALPPREANVVGARRAALDWAAALAGSDGIIVSTDADTQAAPDWLAALVQPLCANRAVQASAGRILLRATERAALPEPVRRTYLLDTGYRDAASRLRARVLPDPFDPAPRHWQHFGASLALRVSAYRAVGGVPQVPCLEDLALVRALARADLPLRHTPRARVYTSARLCGRVPVGLSTQLGEWARGPQHWRVPGGAEVLRLAQAEAALRRSWQARRLAPKLTAQWLTSEAALGAALHAPRWGLALERAHEVREAEGRWQRTFAPIPVWDALQEVRALLSTLPEERPLTAEVCAP | failed
8 | MRFFYFSGEIMEKILVIRNDKLGDFMQAWPAFAMLKASNPKLKLTALVPSYTASLAEICPFIDHVIIDSKKNDKTDFKRLVQEIKAQQFDGMISFFSNTHNGKLAWKSGIKYRLAPATKWVQILYNHRLTQRRSRSEKSEAEYNQDLVRTFLQKHNMPVVEPKPPYLIFEKSAVENQRVFLQENLGLSANKKWIFVHSGSGGSATNLSLAQYADLIKGLLAEFDCNVVLTAGPGESEKAYELANLVNDLRVAIYDKNKGLVDFAHSLACADLFIAGSTGPLHLSSAFNIPTIGFYPNSRSSQPRRWKPINDVDKHIAFCPPAGKESQMNLELISIDNALAEISLFIRNMWQTSNNI | failed
9 | MRFGPVALSAAKGALLAHSRKAPGWTLAKGTRLGDEDLALLAGLGVAEVVVARLDPGDVHEDEAAARVAAVLLGPGLTLGDAFTGRANLFAGGDGLLRLDAARFDRLNALCEGLTVATLPPFAKVAPRQMVATVKIIPFALPETVIAQAEALLAGAPALEVALFRPMRLALIQTHLPETAGKMLDKTASVTAGRMAALGGGLTVDRRCPHDTRALAACLSAVSAEKDVDLIAVAGASAIVDRGDVIPAAITRAGGRVDHLGMPVDPGNLILLGELAGRVVLGLPGCARSPAINGFDWVLDRLCAGLAVGGADLMAMGVGGLLKDTTARTQPRMAAVTHPSPAAPPRLGALVLAAGLSRRMGGVNKLLLDWRGKPLVAHAVDTVLAAGPAAVAVVIGHQGKAVRAALEGRAIALVENPDPGRGLGSSLKRGLAALPADLDGVIVCLGDMPGLTPRLLSRLIAAFAPLEGRAICLPTFGGRRGNPVLFAARFLPEMMEITGDIGARPVIAAHPDQTCEVAMDALAEGASVLMDVDTPEAAKALLSAGGLEHHHHHH | failed
10 | MRFHFFPQPLDRAAWSVFLVALVLTLLLVWGGDRTQAQVREFSWQNRDVGASDRAFILSFNRLMDWSSVATHLRIEPALEGKASWSGRRFAYTLTQPIPYGQTFKVSLEDAVSVPQGKPIKPFQGQFRSRDRVLVYLGSGAEEGRLILYNLTLQQKIFLTPPNLRVFDFQPYPAGDRILFSAGERGEQMGFDPQLYIVTTGLYFNAPDTPRRQAHPAGEISLILDNSEYQNLRFQLANDGSKIVVQRVNRLQPADSSLWLLDENFQPRRLNQAAAGEFRIAPDNQHLIIAQGQGLAIVPLEATNGESNFDFLPQYGMVLDFSRDGRQVAAVKFNPNFSRSLYVVDIFGEHREVLTINGSIIAGQFDPSGQFLYVILTRIEGEGNYREVPYLALLDLKTKELFKLKDFDPQQELYLSLAPDGRTLAIDAVEGREIPAEVDHGDLYSETAPVTPSPRDLVELPPAPPGSPLPPRQLPAQEHQIWLLPLKLDQDKIVVGMPEPLAPGLQARWLP | failed
11 | MRFPFCTGGKTFVLWDVEVCPIPDGLGPHDVFSNIKRVLMDNGYRGDVSTTPYTDLTKSNGEFNGIPVRHLSAGDRDARLEVYMIDLYSCVVKEDGPLNLMLFVGDISSRSKDFFRVFRLLQSSSSDSSVPLSLTQDGICKALTFGEEVIIRECGERRKVPNSD | not failed
12 | MRFRQLLPLFGALFALYIIWGSTYFVIRIGVESWPPLMMAGVRFLSAGMLLMAFLLLRGEKLPPLRQTINAALIGLLLLAVGNGLVTVAEHQNVPSGIAAVVVATVPLFTLCFSYFFGIKTRKLEWVGIAIGLAGIILLNSGGNLSGNPWGAILILIGSMSWAFGSVYGSRIALPVGMMAGAIEMLAAGVVLLCAAFLSGEKLATLPGLSGLMAVGYLALFGSIIAINAYMYLIRNVSPALATSYAYVNPVVAVLLGTGLGGERLSPVEWAALGVIVFAVVLVTLGKYLFPARAVVTPCKTEDSRQ | failed
13 | MRFVATGDWQLGMTAHYLSTEARPRFHRARLDAVKRIGEIAAEQSCDFVVVCGDVFESNQLDRAIISRTFEVLAAFTVPVVLLPGNHDPLDAASIYDSHAFTSRQPGHVHVLRDSEPFEVRPGVEIIGAPWFSKRPQGDLVAQATQNLAEAAPGKVRIIAGHGAVSTLDPDRESLATIDVDSLKTVLREDRAQFVALGDRHATYAVDERIWYSGAPEVTSRREDDPGNVLLVDIDAQSHASSVEKMHIGRWSYLVVEEDVNSDEDVSHLEQRLADIPDKDSTAVWLILRGTLSTAAKSRLDDILDHATDLFALVSLWERHTDIAVVAADEDFAGLGLSGYLQESLDELAETAAGEDLSASAAQDALGLLYRFARSGS | failed
14 | MRGEFYQQLTNDLETARAEGLFKEERIITSAQQADITVADGSHVINFCANNYLGLANHPDLIAAAKAGMDSHGFGMASVRFICGTQDSHKELEQKLAAFLGMEDAILYSSCFDANGGLFETLLGAEDAIISDALNHASIIDGVRLCKAKRYRYANNDMQELEARLKEAREAGARHVLIATDGVFSMDGVIANLKGVCDLADKYDALVMVDDSHAVGFVGENGRGSHEYCDVMGRVDIITGTLGKALGGASGGYTAARKEVVEWLRQRSRPYLFSNSLAPAIVAASIKVLEMVEAGSELRDRLWANARQFREQMSAAGFTLAGADHAIIPVMLGDAVVAQKFARELQKEGIYVTGFFYPVVPKGQARIRTQMSAAHTPEQITRAVEAFTRIGKQLGVIA | not failed
15 | MRGFFSNPWIRWALSLAFLGVILFFLRDQLDFLKMGIQQIRHVSPVGVALTMVALVLSFVAMARVMQIMLKAGGSPATLKATTALTFAANSWSATLPGGPAFSAILTYKVQRSWGASAVLCSWFFLLSSALSTVWLVALGVIAVFYMGASLNLWSLIATFIAMVGLSGAVYWAANNPDSLARWVRKLTKNREWGFVEKLLGSIEQLRSVSLTGPQFAASTAWSLGNRLFDAISLWICIWAVTGTAPMFEPEPNNTTIAGVLLAYTTAKIAGSIQATPGGIGPIEAAYIAALVATGMTAVEAAGAVIIYRLCSFIIMAIVGWVIYFIYFTPQGLKANESLDVEQDTINSDSNRQSAIERPDT | failed
16 | MRGGSLWQLGQSITRRLAQSDKKVVSRRYFASEADLKKTALYDFHVAHGGKMVPFAGWSMPIQYKDSIMDSTVNCRENGSLFDVAHMCGLSLKGKDCVPFLETLVVADVAGLAPGTGSLTVFTNEKGGAIDDSVITKVTDEHIYLVVNAGCRDKDLAHIEEHMKAFKSKGGDVSWHIHDERSLLALQGPLAAPVLQHLTKEDLSKLYFGNFQILDINGSTCFLTRTGYTGEDGFEISVPDEHAVDLAKAILEKSEGKVRLTGLGARDSLRLEAGLCLYGNDMEQHISPVEAGLTWAIGKRRRAEGGFLGADVILQQLKDGPTIRRVGFFSSGPPARSHSEVHDESGNKIGEITSGGFSPNLKKNIAMGYVKSGQHKTGTKVKILVRGKPYEGSITKMPFVATKYYKPT | failed
17 | MRGLSSLLLMIVLALLLYPLPHGVILIGIMTLSLLSHTLGIISLGILALYLIVFRITNIVGVAIMALGLLVVEIREMEKIRAPMEHFLYLIVAVGLSLLTYFGVYAISLAGVSLDVTLLAVLFLLLLYAFIRISVLSP | failed
18 | MRHFDASQPLRVAVLGTGFGSKVHIPALQHHSETTVQAVYHRQPDRAAAIAVQFGIPNAYSDLDQLLADPAIEAVTIASPPFLHYPMAWAALSAGKSVLLEKPTTLNVEEARALWKLASSQGLTVTLDFEYRFVPAWQYVAELLAEGVIGQPWLVKLDWLMSSRADASRPWNWYALRSQGGGALGALGSHSFDYLAWLFGPARRLQARLFTAIQERPDATTGELKPVDSDDTDLIQLELAEGVPCQISLSSVFRQGRGHWLEVYGDRGTLILGSSNQKDYVHGFQVWFASAGQALQELTVPQRLAFRQEFADGRLAPFLRVVDHWLADLRHGQMTAPSLKEGLYSQLLIDLCWQSQRSGEWQTVPELNRFLLEHHHHHH | failed
19 | MRHGEIARAARSAVPRRARAALPLACAALVAAGLAARAAGAAAPPPAPPAAAPARVLSAAVKGPITGGTVEYLEAALARARTGGFAALVVTLDTPGGQLDATREIVQAMLATEVPVIVWVGPAGARAGSAGVFLTLAADVAAMHPTSNIGAAHPVTGAGKDVAEEAGKDMAKKVENDTAAFARSVAAARGRNADWAEKAVRESVSVTAEEALRLKVADLTAADLPELLAKADGRKVGQGAAARPLKVAGAAIEPYEPTVRQRLLGFLADPNVMAILMLVGMLGIAVEFYHPGMIFPGAVGGFCLFLAFLAMRVIPVNVGAVILLLAGVGLLVAEAYVTAHGLAGLAGAACLVLGTLFFVNTSAPGDWFDPGALRLSPWVIWPTPAALALLLAFMAWNVARVRRAPLQLGAPALVGAPGEALSEIGPAAGEAFVHGEYWQARSAAPIPRGAAVRVVAVEGLTVTVVAAGPGNG | failed
